EC50, Ka and Kd data for 13 molecules are collected here from patent publication US20180142007A1 (published 2018).

The target of test [1] is T1, tau peptide 352-380.
T1 peptide: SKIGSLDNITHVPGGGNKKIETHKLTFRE
Description: ELISA; IgG4.

Test [2] concerns the target T2, tau peptide 314-342.
T2 peptide: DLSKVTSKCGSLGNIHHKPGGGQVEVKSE
Description: ELISA; IgG4.

The target of test [3] is T3, tau peptide 256-285.
T3 peptide: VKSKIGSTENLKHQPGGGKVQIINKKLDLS
Briefly: ELISA; IgG4.

Test [4] deals with T4, tau peptide 282-311.
T4 peptide: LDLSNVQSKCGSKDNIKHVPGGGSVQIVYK
Description: ELISA.

Test [5] has as its target T5, misdisordered truncated tau 151-391/4R (UniProt P10636 468-708). Briefly: SPR; IgG4.
Test [6] has as its target T6, full length physiological tau 2N4R (UniProt P10636 1-758). Description: SPR; IgG4.
The target of test [7] is T1, tau peptide 352-380. Description: ELISA.
Test [8] concerns the target T4, tau peptide 282-311. Description: ELISA.
Test [9] deals with T2, tau peptide 314-342. Briefly: ELISA.
Test [10] has as its target T3, tau peptide 256-285. Description: ELISA.
The target in test [11] is T5, misdisordered truncated tau 151-391/4R. Briefly: ELISA; IgG1.
In test [12] the target is T6, full length physiological tau 2N4R. Briefly: ELISA; IgG1.
The target in test [13] is T5, misdisordered truncated tau 151-391/4R. Briefly: SPR; IgG1.
Test [14] addresses T6, full length physiological tau 2N4R. Briefly: SPR; IgG1.
Test [15] deals with T5, misdisordered truncated tau 151-391/4R. Description: SPR.
Test [16] has the same target. Description: SPR. The source holds these as a separate data set.
For test [17] the target is unchanged. Description: SPR. The source holds these as a separate data set.
In test [18] the target is T1, tau peptide 352-380. Briefly: ELISA.
The target of test [19] is T4, tau peptide 282-311. Description: ELISA.
Test [20] addresses T2, tau peptide 314-342. Description: ELISA.
Test [21] deals with T3, tau peptide 256-285. Briefly: ELISA.
Test [22] addresses T5, misdisordered truncated tau 151-391/4R. Description: SPR. This is another data set of the same source.
The target in test [23] is T6, full length physiological tau 2N4R. Description: SPR.
Test [24] deals with T1, tau peptide 352-380. Briefly: ELISA.
The target in test [25] is T2, tau peptide 314-342. Description: ELISA.
Test [26] has as its target T3, tau peptide 256-285. Briefly: ELISA.
Test [27] concerns the target T5, misdisordered truncated tau 151-391/4R. Briefly: ELISA.
Test [28] has the same target. Briefly: SPR. The source holds these as a separate data set.

Positions count from the first letter of the chain named. Read-outs that look alike come from different tables or passages of the source.

T6 sequence (P10636 other isoform, or with tags, fused parts or gaps): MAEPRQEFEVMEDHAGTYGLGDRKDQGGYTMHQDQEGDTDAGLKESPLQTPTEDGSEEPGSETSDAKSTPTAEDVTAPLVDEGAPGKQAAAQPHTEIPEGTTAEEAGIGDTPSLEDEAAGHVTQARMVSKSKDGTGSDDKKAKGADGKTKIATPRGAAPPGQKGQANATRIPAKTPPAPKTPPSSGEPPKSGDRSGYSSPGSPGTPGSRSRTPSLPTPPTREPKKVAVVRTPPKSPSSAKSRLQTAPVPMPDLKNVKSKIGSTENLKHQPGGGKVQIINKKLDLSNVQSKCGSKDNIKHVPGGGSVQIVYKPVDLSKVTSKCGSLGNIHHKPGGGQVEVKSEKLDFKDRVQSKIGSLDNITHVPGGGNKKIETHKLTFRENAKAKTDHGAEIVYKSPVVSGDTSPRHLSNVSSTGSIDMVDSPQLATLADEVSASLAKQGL
T5 sequence (P10636 468-708): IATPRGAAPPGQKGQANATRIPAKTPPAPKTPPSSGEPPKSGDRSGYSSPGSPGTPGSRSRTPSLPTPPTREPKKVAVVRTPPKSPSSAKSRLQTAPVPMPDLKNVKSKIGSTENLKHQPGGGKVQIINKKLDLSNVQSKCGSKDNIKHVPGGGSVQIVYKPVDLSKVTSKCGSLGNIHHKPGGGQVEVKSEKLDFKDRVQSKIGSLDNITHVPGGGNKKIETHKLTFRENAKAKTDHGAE

B1: AX016-IgG4, humanized DC8E8 RHD/RKB, IgG4 isotype (antibody)
heavy: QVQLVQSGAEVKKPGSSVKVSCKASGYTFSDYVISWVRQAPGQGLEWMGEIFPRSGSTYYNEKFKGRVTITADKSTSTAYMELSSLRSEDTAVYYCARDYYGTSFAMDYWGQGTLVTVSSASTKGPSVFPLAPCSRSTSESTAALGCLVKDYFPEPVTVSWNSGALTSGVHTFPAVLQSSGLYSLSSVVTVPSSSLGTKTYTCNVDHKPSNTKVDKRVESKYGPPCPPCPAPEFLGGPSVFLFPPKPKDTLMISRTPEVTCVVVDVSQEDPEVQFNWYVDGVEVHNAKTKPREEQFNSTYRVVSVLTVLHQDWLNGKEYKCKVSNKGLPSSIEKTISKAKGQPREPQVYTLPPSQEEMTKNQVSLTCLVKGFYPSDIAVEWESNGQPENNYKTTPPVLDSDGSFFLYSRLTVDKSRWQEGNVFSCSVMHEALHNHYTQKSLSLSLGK
light: DIVMSQSPLSLPVTPGEPASISCKSSQSLLNSRTRKNYLAWYLQKPGQSPQLLIYWASTRESGVPDRFTGSGSGTDFTLKISRVEAEDVGVYYCKQSFYLRTFGQGTKVEIKRTVAAPSVFIFPPSDEQLKSGTASVVCLLNNFYPREAKVQWKVDNALQSGNSQESVTEQDSKDSTYSLSSTLTLSKADYEKHKVYACEVTHQGLSSPVTKSFNRGEC
Turning to B1, the EC50 stood at 0.085 µg/mL in the test with tau peptide 352-380 [1], 0.0153 µg/mL with tau peptide 314-342 [2], 0.0139 µg/mL with tau peptide 256-285 [3] and 0.00756 µg/mL in the test with tau peptide 282-311 [4]. Also, the Ka turned out to be 7.2e+08 M⁻¹ in [5] and 6.6e+07 M⁻¹ in [6].

B2: AX017-IgG1, humanized DC8E8 RHE/RKB, IgG1 isotype (antibody)
heavy: not shown
light: B1 light
Take B2: the EC50 in the test with tau peptide 352-380 [7] turned out to be 0.883 µg/mL; in the test with tau peptide 282-311 [8], 0.00766 µg/mL; with tau peptide 314-342 [9], 0.096 µg/mL.

B3: AX017-IgG4, humanized DC8E8 RHE/RKB, IgG4 isotype (antibody)
heavy: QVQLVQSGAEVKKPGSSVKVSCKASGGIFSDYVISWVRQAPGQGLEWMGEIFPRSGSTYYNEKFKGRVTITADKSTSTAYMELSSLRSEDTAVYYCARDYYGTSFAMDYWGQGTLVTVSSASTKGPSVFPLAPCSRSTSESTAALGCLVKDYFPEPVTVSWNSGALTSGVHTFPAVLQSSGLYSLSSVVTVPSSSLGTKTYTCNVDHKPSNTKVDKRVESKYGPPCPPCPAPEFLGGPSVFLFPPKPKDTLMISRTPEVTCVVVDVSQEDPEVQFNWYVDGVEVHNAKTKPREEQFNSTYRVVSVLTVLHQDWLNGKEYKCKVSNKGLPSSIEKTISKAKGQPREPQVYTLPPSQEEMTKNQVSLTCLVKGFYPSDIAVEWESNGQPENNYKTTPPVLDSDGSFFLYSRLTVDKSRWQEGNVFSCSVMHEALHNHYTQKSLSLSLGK
light: B1 light
B3: the EC50 was 0.385 µg/mL in the test with tau peptide 352-380 [1], 0.0726 µg/mL with tau peptide 314-342 [2] and 0.00901 µg/mL in the test with tau peptide 282-311 [4].

B4: AX004-IgG4, humanized DC8E8 RHD/RKA, IgG4 isotype (antibody)
heavy: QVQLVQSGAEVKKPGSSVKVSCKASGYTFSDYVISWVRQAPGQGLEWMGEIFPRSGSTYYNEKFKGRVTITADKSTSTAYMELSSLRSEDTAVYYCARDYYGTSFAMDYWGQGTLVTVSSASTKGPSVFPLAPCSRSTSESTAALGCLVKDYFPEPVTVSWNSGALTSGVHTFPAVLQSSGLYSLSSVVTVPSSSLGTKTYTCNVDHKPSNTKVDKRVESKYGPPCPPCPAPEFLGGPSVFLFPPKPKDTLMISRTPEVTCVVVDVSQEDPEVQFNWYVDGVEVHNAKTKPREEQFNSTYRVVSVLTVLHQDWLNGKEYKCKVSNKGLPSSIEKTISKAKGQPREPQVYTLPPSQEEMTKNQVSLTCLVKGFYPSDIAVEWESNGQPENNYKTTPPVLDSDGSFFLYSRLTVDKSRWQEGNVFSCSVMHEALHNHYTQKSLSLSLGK
light: B1 light with S5T
For the molecule B4, the EC50 is 0.0814 µg/mL with tau peptide 352-380 [1], 0.013 µg/mL with tau peptide 314-342 [2], 0.0132 µg/mL with tau peptide 256-285 [3] and 0.0067 µg/mL with tau peptide 282-311 [4]. In addition, the values for the Ka in test [5] and in test [6] were 7.75e+08 M⁻¹ and 6.5e+07 M⁻¹, respectively.

B5: AX005-IgG1, humanized DC8E8 RHE/RKA, IgG1 isotype (antibody)
heavy: not shown
light: B1 light with S5T
Take B5: the figures for the concentration giving a half-maximal response (EC50) with tau peptide 352-380 [7], with tau peptide 282-311 [8] and with tau peptide 314-342 [9] were 0.579 µg/mL, 0.0068 µg/mL and 0.0562 µg/mL, respectively.

B6: AX016-IgG1, humanized DC8E8 RHD/RKB, IgG1 isotype (antibody)
heavy: not shown
light: B1 light
As to B6, the concentration for a half-maximal effect (EC50) in the test with tau peptide 352-380 [7] was determined as 0.0566 µg/mL; with tau peptide 282-311 [8] it was 0.00647 µg/mL; in the test with tau peptide 314-342 [9], 0.0122 µg/mL; with tau peptide 256-285 [10], 0.0117 µg/mL; in test [11], 0.0137 µg/mL; in [12], 0.0513 µg/mL. The Ka stood at 1.6e+09 M⁻¹ in test [13] and 1.9e+08 M⁻¹ in [14].

B7: AX005-IgG4, humanized DC8E8 RHE/RKA, IgG4 isotype (antibody)
heavy: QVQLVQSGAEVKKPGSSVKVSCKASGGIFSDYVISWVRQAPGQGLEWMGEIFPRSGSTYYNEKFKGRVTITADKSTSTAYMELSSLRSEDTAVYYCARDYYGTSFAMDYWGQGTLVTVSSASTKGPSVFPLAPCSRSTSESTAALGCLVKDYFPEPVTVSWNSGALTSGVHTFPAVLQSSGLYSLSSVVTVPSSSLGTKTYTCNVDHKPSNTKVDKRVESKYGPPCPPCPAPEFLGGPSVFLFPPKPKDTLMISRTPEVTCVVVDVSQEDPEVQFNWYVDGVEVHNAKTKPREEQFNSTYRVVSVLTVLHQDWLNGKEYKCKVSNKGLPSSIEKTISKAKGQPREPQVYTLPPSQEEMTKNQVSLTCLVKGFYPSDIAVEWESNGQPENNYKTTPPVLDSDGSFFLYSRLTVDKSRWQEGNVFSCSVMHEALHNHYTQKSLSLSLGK
light: B1 light with S5T
Consider B7, for which the EC50 with tau peptide 352-380 [1] stood at 0.397 µg/mL; with tau peptide 314-342 [2] it was 0.0745 µg/mL; in the test with tau peptide 282-311 [4] it was 0.00898 µg/mL.

B8: AX004, humanized DC8E8 RHD/RKA (isotype not stated where tested) (antibody)
VH: QVQLVQSGAEVKKPGSSVKVSCKASGYTFSDYVISWVRQAPGQGLEWMGEIFPRSGSTYYNEKFKGRVTITADKSTSTAYMELSSLRSEDTAVYYCARDYYGTSFAMDYWGQGTLVTVSS
light: B1 light with S5T
As for B8, the dissociation constant Kd in test [15] and in test [16] was 14.7 nM in each case.

B9: AX004-IgG1, humanized DC8E8 RHD/RKA, IgG1 isotype (antibody)
heavy: not shown
light: B1 light with S5T
As for B9, the EC50 with tau peptide 352-380 [7] was 0.0587 µg/mL; with tau peptide 282-311 [8], 0.00598 µg/mL; with tau peptide 314-342 [9], 0.0118 µg/mL; with tau peptide 256-285 [10], 0.0121 µg/mL; in [11], 0.0147 µg/mL; in test [12], 0.0532 µg/mL. The Ka in test [13] was determined as 1.6e+09 M⁻¹; in [14], 1.1e+08 M⁻¹.

B10: chimeric DC8E8 (isotype not stated where tested) (antibody)
VH: QVQLQQSGPELVKPGTSVKMPCKASGYIFTDYVISWVKQRTGQGLEWIGEIFPRSGSTYYNEKFKGKATLTADKSSNTAYMQLSSVTSEDSAVYFCARDYYGTSFAMDYWGQGTSVTVSS
light: DIVMSQSPSSLAVSAGEKVTMSCKSSQSLLNSRTRKNYLAWYQQKPGQSPKLLIYWASTRESGVPDRFTGSGSGTDFTLTISSVQAEDLAVYYCKQSFYLRTFGGGTKLDIKRTVAAPSVFIFPPSDEQLKSGTASVVCLLNNFYPREAKVQWKVDNALQSGNSQESVTEQDSKDSTYSLSSTLTLSKADYEKHKVYACEVTHQGLSSPVTKSFNRGEC
For B10, the Kd in [17] and in [16] was 10.4 nM each time. Also, the EC50 with tau peptide 352-380 [18] was 0.087 µg/mL; in the test with tau peptide 282-311 [19] it was 0.00731 µg/mL; with tau peptide 314-342 [20] it was 0.0173 µg/mL; with tau peptide 256-285 [21], 0.0212 µg/mL; in the test with tau peptide 352-380 [24], 0.0814 µg/mL; in the test with tau peptide 282-311 [4], 0.00852 µg/mL. Also, the EC50 in the test with tau peptide 314-342 [25] stood at 0.0265 µg/mL; with tau peptide 256-285 [26], 0.0297 µg/mL. Further, the Ka in [22] was found to be 4.2e+08 M⁻¹; in test [23], 4.4e+07 M⁻¹.

B11: chimeric DC8E8, human IgG4/kappa (antibody)
heavy: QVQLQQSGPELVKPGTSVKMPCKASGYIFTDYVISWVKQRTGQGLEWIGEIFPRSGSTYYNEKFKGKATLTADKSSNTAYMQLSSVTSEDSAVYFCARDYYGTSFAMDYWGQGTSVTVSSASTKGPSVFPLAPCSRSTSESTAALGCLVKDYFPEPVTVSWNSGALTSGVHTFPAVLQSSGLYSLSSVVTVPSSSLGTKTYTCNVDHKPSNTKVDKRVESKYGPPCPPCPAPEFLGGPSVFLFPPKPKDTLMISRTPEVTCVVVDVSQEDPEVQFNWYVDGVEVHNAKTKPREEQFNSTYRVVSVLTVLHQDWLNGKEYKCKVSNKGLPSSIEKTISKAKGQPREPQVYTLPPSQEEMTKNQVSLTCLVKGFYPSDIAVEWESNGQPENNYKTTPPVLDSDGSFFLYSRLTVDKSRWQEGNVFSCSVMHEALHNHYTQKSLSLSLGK
light: B10 light
In test [27], B11 registered an EC50 of 0.0507 µg/mL.

B12: chimeric DC8E8, human IgG1/kappa (antibody)
heavy: not shown
light: B10 light
As to B12, the EC50 in test [27] was 0.0214 µg/mL.

B13: mouse monoclonal antibody DC8E8 (antibody)
heavy: QVQLQQSGPELVKPGTSVKMPCKASGYIFTDYVISWVKQRTGQGLEWIGEIFPRSGSTYYNEKFKGKATLTADKSSNTAYMQLSSVTSEDSAVYFCARDYYGTSFAMDYWGQGTSVTVSSAKTTPPSVYPLAPGSAAQTNSMVTLGCLVKGYFPEPVTVTWNSGSLSSGVHTFPAVLQSDLYTLSSSVTVPSSTWPSQTVTCNVAHPASSTKVDKKIVPRDCGCKPCICTVPEVSSVFIFPPKPKDVLTITLTPKVTCVVVDISKDDPEVQFSWFVDDVEVHTAQTKPREEQINSTFRSVSELPIMHQDWLNGKEFKCRVNSAAFPAPIEKTISKTKGRPKAPQVYTIPPPKEQMAKDKVSLTCMITNFFPEDITVEWQWNGQPAENYKNTQPIMDTDGSYFVYSKLNVQKSNWEAGNTFTCSVLHEGLHNHHTEKSLSHSPGK
VL: DIVMSQSPSSLAVSAGEKVTMSCKSSQSLLNSRTRKNYLAWYQQKPGQSPKLLIYWASTRESGVPDRFTGSGSGTDFTLTISSVQAEDLAVYYCKQSFYLRTFGGGTKLDIK
Turning to B13, the EC50 in the test with tau peptide 352-380 [18] came to 0.213 µg/mL; in the test with tau peptide 282-311 [19], 0.0118 µg/mL; with tau peptide 314-342 [20], 0.039 µg/mL; with tau peptide 256-285 [21], 0.0433 µg/mL; in test [27] it was 0.0448 µg/mL. Moreover, the results for the Ka in test [22] and in test [23] were 1.9e+08 M⁻¹ and 3.9e+07 M⁻¹, respectively. The Kd in test [28] and in [16] was 10.4 nM each time.
